Results from publication PMC5361195.

B1: Flag-tagged wild-type A2 domain of coagulation factor VIII (pED-Flag-A2) [human] / calreticulin [not stated (endogenous in COS-1 or HEK293T cells)] (parent)
chain 1: KTWVHYIAAEEEDWDYAPLVLAPDDRSYKSQYLNNGPQRIGRKYKKVRFMAYTDETFKTREAIQHESGILGPLLYGEVGDTLLIIFKNQASRPYNIYPHGITDVRPLYSRRLPKGVKHLKDFPILPGEIFKYKWTVTVEDGPTKSDPRCLTRYYSSFVNMERDLASGLIGPLLICYKESVDQRGNQIMSDKRNVILFSVFDENRSWYLTENIQRFLPNPAGVQLEDPEFQASNIMHSINGYVFDSLQLSVCLHEVAYWYILSIGAQTDFLSVFFSGYTFKHKMVYEDTLTLFPFSGETVFMSMENPGLWILGCHNSDFRNRGMTALLKVSSC
chain 2: EPAVYFKEQFLDGDGWTSRWIESKHKSDFGKFVLSSGKFYGDEEKDKGLQTSQDARFYALSASFEPFSNKGQTLVVQFTVKHEQNIDCGGGYVKLFPNSLDQTDMHGDSEYNIMFGPDICGPGTKKVHVIFNYKGKNVLINKDIRCKDDEFTHLYTLIVRPDNTYEVKIDNSQVESGSLEDDWDFLPPKKIKDPDASKPEDWDERAKIDDPTDSKPEDWDKPEHIPDPDAKKPEDWDEEMDGEWEPPVIQNPEYKGEWKPRQIDNPDYKGTWIHPEIDNPEYSPDPSIYAYDNFGVLGLDLWQVKSGTIFDNFLITNDEAYAEEFGNETWGVTKAAEKQMKDKQDEEQRLKEEEEDKKRKEEEEAEDKEDDEDKDEDEEDEEDKEEDEEEDVPGQAKDEL

Variants of: B1
Test: co-immunoprecipitation (anti-Flag IP, immunoblot densitometry)
Conditions: with calreticulin [not stated (endogenous in COS-1 or HEK293T cells)]; 36 h after transfection; n = 3; parent: 1; read off a plot

Q: Which ratio to parent does the source give for chain 1 N203D here?
A: 0.92

Q: How did the ratio to parent turn out when chain 1 D201V was run?
A: 1.1

Q: chain 1 D201H was tested. Which ratio to parent did it give?
A: 2.2

Q: With chain 1 S205T as the variant, how does the ratio to parent read?
A: 2.3
